Literature values, collected in patent publication US9394339B2, “Stabilized formulations of peptides and proteins protecting against non-enzymatic degradation” (Lyotropic Therapeutics, Inc., priority 2007, dated 2016).

B1: Procarboxypeptidase A2 (1AYE): human protein (protein, UniProt P48052 19-419, looked up)
pro-form: LETFVGDQVLEIVPSNEEQIKNLLQLEAQEHLQLDFWKSPTTPGETAHVRVPFVNVQAVKVFLESQGIAYSIMIEDVQVLLDKENEEMLFNRRRERSGNFNFGAYHTLEEISQEMDNLVAEHPGLVSKVNIGSSFENRPMNVLKFSTGGDKPAIWLDAGIHAREWVTQATALWTANKIVSDYGKDPSITSILDALDIFLLPVTNPDGYVFSQTKNRMWRKTRSKVSGSLCVGVDPNRNWDAGFGGPGASSNPCSDSYHGPSANSEVEVKSIVDFIKSHGKVKAFITLHSYSQLLMFPYGYKCTKLDDFDELSEVAQKAAQSLRSLHGTKYKVGPICSVIYQASGGSIDWSYDYGIKYSFAFELRDTGRYGFLLPARQILPTAEETWLGLKAIMEHVRDHPY
modifications: pro-form
B2: Ribonuclease 4 (1RNF): human protein (protein, UniProt P34096 29-147, looked up)
Ribonuclease 4: QDGMYQRFLRQHVHPEETGGSDRYCNLMMQRRKMTLYHCKRFNTFIHEDIWNIRSICSTTNIQCKNGKMNCHEGVVKVTDCRDTGSSRAPNCRYRAIASTRRVVIACEGNPQVPVHFDG
B3: -Lactalbumin (1B9O): human protein (protein, UniProt P00709 20-142, looked up)
Alpha-lactalbumin: KQFTKCELSQLLKDIDGYGGIALPELICTMFHTSGYDTQAIVENNESTEYGLFQISNKLWCKSSQVPQSRNICDISCDKFLDDDITDDIMCAKKILDIKGIDYWLAHKALCTEKLEQWLCEKL
B4: Electron transfer flavoprotein (1EFV): human protein (protein, UniProt P13804 20-333; P38117 2-255, looked up)
Electron transfer … 1: QSTLVIAEHANDSLAPITLNTITAATRLGGEVSCLVAGTKCDKVAQDLCKVAGIAKVLVAQHDVYKGLLPEELTPLILATQKQFNYTHICAGASAFGKNLLPRVAAKLEVAPISDIIAIKSPDTFVRTIYAGNALCTVKCDEKVKVFSVRGTSFDAAATSGGSASSEKASSTSPVEISEWLDQKLTKSDRPELTGAKVVVSGGRGLKSGENFKLLYDLADQLHAAVGASRAAVDAGFVPNDMQVGQTGKIVAPELYIAVGISGAIQHLAGMKDSKTIVAINKDPEAPIFQVADYGIVADLFKVVPEMTEILKKK
Electron transfer … 2: AELRVLVAVKRVIDYAVKIRVKPDRTGVVTDGVKHSMNPFCEIAVEEAVRLKEKKLVKEVIAVSCGPAQCQETIRTALAMGADRGIHVEVPPAEAERLGPLQVARVLAKLAEKEKVDLVLLGKQAIDDDCNQTGQMTAGFLDWPQGTFASQVTLEGDKLKVEREIDGGLETLRLKLPAVVTADLRLNEPRYATLPNIMKAKKKKIEVIKPGDLGVDLTSKLSVISVEDPPQRTAGVKVETTEDLVAKLKEIGRI
B5: Uroporphyrinogen decarboxylase (1URO): human protein (protein, UniProt P06132 1-367, looked up)
Uroporphyrinogen decarboxylase: MEANGLGPQGFPELKNDTFLRAAWGEETDYTPVWCMRQAGRYLPEFRETRAAQDFFSTCRSPEACCELTLQPLRRFPLDAAIIFSDILVVPQALGMEVTMVPGKGPSFPEPLREEQDLERLRDPEVVASELGYVFQAITLTRQRLAGRVPLIGFAGAPWTLMTYMVEGGGSSTMAQAKRWLYQRPQASHQLLRILTDALVPYLVGQVVAGAQALQLFESHAGHLGPQLFNKFALPYIRDVAKQVKARLREAGLAPVPMIIFAKDGHFALEELAQAGYEVVGLDWTVAPKKARECVGKTVTLQGNLDPCALYASEEEIGQLVKQMLDDFGPHRYIANLGHGLYPDMDPEHVGAFVDAVHKHSRLLRQN

Conditions: aqueous solution, pH 7.4, 37° C., Tris-HCl buffer

Compared with B1, B2 is lower in “T1/10 (time to 10% degradation by deamidation)” value: 23 days for the first, 20 days for the second.

Compared with B3, B4 is higher in “T1/10 (time to 10% degradation by deamidation)” value: 20 days for the first, 29 days for the second.

For B5, the “T1/10 (time to 10% degradation by deamidation)” value is listed as 0.15 days.

Same assay, conditions: pH 7.4, 37° C., […] Tris.HCl buffer

In the case of B5, the “time to lose 10% potency” value is listed as “about 3.6 hours”.
